Results reported in patent publication US20230235058A1 (OXFORD UNIVERSITY INNOVATION, published 2023).
Changes are numbered by the printed parent chain. In names and notes the source's numbering stands.

Tests used:
[1] = molecular target: T1, full length human BTLA expressed on cells (human, UniProt Q7Z6A9 31-289); test: cell-based or functional assay
[2] = molecular target: T2, monomeric soluble human BTLA extracellular domain (BTLA K31-R151) (human, UniProt Q7Z6A9 31-151); test: SPR, monomeric BTLA
T2 construct: also called hBTLA; monomeric BTLA

human FcγR1A = molecular target: T3, human FcγR1A (human, UniProt P12314 16-288, biotinylated); test: SPR 37C, kinetic
T3 construct: bought; also called CD64A
Protocol: For the high affinity FcR interactions (FcγR1A, and also FcRn assessed at pH6.0) the binding was assessed in a kinetic analysis with antibody as analyte. […] Reference flow cell 1 was left empty in all channels. Purified antibody was then injected at a single concentration and on/off rates calculated by curve fitting on BiaEvaluation software.

human FcRn = molecular target: T4, human FcRn (human, UniProt P55899 24-297; P61769 21-119, limits assumed, biotinylated); test: SPR, pH6.0
T4 construct: bought; also called FcRn pH6

[3] = molecular target: T5, soluble cynomolgus macaque BTLA extracellular domain (BTLA K31-R151) (cynomolgus macaque); test: SPR Biacore 8K 37C, single cycle kinetics;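 further: antibody captured on sensor chip, soluble BTLA extracellular domain flowed over at several concentrations in HBS-EP pH 7.4, rates fitted after subtracting isotype-control reference channel and blank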
T5 construct: also called cynomolgus BTLA; cyno BTLA
T5 chain: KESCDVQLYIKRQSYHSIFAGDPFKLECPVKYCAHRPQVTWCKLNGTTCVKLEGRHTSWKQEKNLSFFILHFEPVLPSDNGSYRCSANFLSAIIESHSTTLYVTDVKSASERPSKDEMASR
Protocol: (§1) The binding affinity and kinetics of humanised BTLA agonist antibodies to human or cynomolgus BTLA were determined by surface plasmon resonance using the Biacore 8K (GE Healthcare). […] Anti-BTLA antibody was then captured onto the biosensor surface and a negative control antibody (human IgG1k isotype control; Sino Biological cat #HG1K) captured in the reference channel. Various concentrations of monomeric soluble human BTLA extracellular domain (BTLA^K31-R151, produced recombinantly in house) or soluble cynomolgus macaque BTLA extracellular domain (BTLA^K31-R151, produced recombinantly in house) were then injected over the immobilized antibodies in the buffer HBS-EP (GE Healthcare, cat #BR100669), pH 7.4 (HBS-P) at 37° C., in a single cycle kinetics analysis.

[4] = molecular target: T2, monomeric soluble human BTLA …; test: SPR Biacore 8K 37C, single cycle kinetics;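 further: antibody captured on sensor chip, soluble BTLA extracellular domain flowed over at several concentrations in HBS-EP pH 7.4, rates fitted after subtracting isotype-control reference channel and blank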
Protocol: as §1

[5] = molecular target: T6, full length cynomolgus BTLA expressed on Jurkat cells (cynomolgus monkey, UniProt Q7Z6A9 31-289 (human entry)); test: flow cytometry, BTLA Jurkat cells
T6 construct: also called cynomolgus BTLA expressing cells
T6 chain: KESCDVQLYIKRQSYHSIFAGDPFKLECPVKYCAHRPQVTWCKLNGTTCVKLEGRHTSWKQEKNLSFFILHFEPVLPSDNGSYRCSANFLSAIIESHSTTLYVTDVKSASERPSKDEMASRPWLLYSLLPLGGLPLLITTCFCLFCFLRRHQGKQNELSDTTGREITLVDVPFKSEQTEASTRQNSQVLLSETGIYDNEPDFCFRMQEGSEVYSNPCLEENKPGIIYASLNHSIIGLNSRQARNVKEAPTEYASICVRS
Protocol: (§2) A lentiviral transfection system was used to express full length human or cynomolgus BTLA in a Jurkat T cell line. 1×10⁵ cells per well were plated in 96 well U-bottom plates. […] Secondary antibody was incubated for 30 minutes on ice, then cells were washed and resuspended in FACS buffer for analysis on a flow cytometer. The geometric mean fluorescent intensity of secondary antibody was plotted for each concentration and the EC50 for receptor binding calculated by non-linear curve fitting using GraphPad Prism software.
(§3) The ability of the BTLA agonist antibodies of the present invention to bind to human or cynomolgus BTLA expressed on the cell surface was assessed by flow cytometry. A lentiviral transfection system was used to express full length human or cynomolgus BTLA in a Jurkat T cell line. 1×10⁵ cells per well were plated in 96 well U-bottom plates.

[6] = molecular target: T1, full length human BTLA expressed on …; test: flow cytometry, BTLA Jurkat cells
Protocol: as §2, §3

human FcγR2B = molecular target: T7, human FcγR2B (human, UniProt P31994 43-217); test: SPR 37C, steady state;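 further: fc variants captured on chip-bound human BTLA ectodomain, recombinant FcγR ectodomains injected as analyte at varied concentrations, double-referenced equilibrium binding fitted to Langmuir model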
T7 construct: extracellular domain; also called hFcγR2B; CD32B
T7 sequence (looked up): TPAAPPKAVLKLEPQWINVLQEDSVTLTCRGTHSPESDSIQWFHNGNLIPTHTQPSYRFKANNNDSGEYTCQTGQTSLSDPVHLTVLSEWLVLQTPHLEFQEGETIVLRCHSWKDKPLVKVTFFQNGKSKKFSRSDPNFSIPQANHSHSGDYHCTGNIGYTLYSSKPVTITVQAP

human FcγR3B = molecular target: T8, human FcγR3B (human, UniProt O75015 17-200, limits assumed); test: SPR 37C, steady state;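 further: fc variants captured on chip-bound human BTLA ectodomain, recombinant FcγR ectodomains injected as analyte at varied concentrations, double-referenced equilibrium binding fitted to Langmuir model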
T8 construct: extracellular domain; also called CD16B

human FcγR2A 131H = molecular target: T9, human FcγR2A 131H (human, UniProt P12318 34-217); test: SPR 37C, steady state;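 further: fc variants captured on chip-bound human BTLA ectodomain, recombinant FcγR ectodomains injected as analyte at varied concentrations, double-referenced equilibrium binding fitted to Langmuir model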
T9 construct: extracellular domain
T9 sequence (looked up): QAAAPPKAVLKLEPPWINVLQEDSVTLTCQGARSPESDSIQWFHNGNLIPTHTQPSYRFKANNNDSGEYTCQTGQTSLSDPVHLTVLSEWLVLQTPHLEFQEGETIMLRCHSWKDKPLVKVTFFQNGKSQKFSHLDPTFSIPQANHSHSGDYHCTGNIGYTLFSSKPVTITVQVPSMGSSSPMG

human FcγR2A 131R = molecular target: T10, human FcγR2A 131R (human, UniProt P12318 34-217); test: SPR 37C, steady state;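 further: fc variants captured on chip-bound human BTLA ectodomain, recombinant FcγR ectodomains injected as analyte at varied concentrations, double-referenced equilibrium binding fitted to Langmuir model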
T10 construct: extracellular domain
T10 sequence (looked up): T9 sequence (looked up) with H134R

human FcγR3A 158V = molecular target: T11, human FcγR3A 158V (human, UniProt P08637 17-208); test: SPR 37C, steady state
T11 construct: extracellular domain

human FcγR3A 158F = molecular target: T12, human FcγR3A 158F (human, UniProt P08637 17-208); test: SPR 37C, steady state
T12 construct: extracellular domain
T12 sequence (P08637 17-208): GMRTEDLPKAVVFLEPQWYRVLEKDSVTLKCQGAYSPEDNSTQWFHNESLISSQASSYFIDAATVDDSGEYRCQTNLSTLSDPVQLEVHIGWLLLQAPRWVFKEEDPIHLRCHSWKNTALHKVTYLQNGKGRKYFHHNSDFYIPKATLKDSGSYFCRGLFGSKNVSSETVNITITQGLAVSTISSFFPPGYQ

T3 sequence (P12314 16-288): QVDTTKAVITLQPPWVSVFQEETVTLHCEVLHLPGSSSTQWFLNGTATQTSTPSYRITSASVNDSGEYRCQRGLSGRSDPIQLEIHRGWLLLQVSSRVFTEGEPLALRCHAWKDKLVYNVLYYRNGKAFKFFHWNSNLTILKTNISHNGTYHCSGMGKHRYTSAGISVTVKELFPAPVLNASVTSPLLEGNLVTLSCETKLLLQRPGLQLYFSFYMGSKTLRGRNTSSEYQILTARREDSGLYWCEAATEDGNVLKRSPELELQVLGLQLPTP
T8 sequence (O75015 17-200 limits assumed): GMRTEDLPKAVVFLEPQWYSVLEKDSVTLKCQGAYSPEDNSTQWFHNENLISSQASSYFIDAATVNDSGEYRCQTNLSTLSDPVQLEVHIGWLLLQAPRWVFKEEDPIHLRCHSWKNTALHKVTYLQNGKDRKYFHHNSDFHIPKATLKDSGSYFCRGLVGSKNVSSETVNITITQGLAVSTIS
T11 sequence (P08637 17-208 F176V): as the sequence (P08637 17-208) above, with F160V counted along it
T4 sequence (P55899 24-297 limits assumed, chain 1 of 2): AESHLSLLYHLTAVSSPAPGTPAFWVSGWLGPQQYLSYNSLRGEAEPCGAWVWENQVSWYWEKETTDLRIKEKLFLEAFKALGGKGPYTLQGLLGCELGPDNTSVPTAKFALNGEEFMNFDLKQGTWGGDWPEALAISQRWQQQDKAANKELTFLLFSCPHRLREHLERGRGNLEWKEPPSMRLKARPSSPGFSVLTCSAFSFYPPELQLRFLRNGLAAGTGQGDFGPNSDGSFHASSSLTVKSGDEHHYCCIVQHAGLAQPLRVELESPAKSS
T4 sequence (P61769 21-119 limits assumed, chain 2 of 2): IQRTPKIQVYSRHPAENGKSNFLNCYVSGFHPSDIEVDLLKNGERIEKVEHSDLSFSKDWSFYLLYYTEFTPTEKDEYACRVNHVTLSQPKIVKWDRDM

B1: Humanised 2.8.6 (hIgG1 P238D) (antibody)
heavy: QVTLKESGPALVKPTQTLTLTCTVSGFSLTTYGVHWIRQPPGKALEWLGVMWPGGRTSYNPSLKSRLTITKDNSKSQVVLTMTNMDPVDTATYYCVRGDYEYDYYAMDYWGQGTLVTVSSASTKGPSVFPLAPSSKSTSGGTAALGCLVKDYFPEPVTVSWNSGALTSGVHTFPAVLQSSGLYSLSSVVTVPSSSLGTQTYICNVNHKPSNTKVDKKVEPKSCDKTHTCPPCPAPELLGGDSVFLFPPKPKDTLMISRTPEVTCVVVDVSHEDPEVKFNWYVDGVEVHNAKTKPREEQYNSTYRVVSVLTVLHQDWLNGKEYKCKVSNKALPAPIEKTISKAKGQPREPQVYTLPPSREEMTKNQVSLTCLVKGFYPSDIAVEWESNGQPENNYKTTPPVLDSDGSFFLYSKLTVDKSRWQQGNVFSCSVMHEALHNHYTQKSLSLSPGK
light: EIVLTQSPATLSLSPGERATLSCRASSSVSYMHWYQQKPGQAPRPLIYATSNRATGIPARFSGSGSGTDYTLTISSLEPEDFAVYYCHQWSSNPYTFGQGTKLEIKRTVAAPSVFIFPPSDEQLKSGTASVVCLLNNFYPREAKVQWKVDNALQSGNSQESVTEQDSKDSTYSLSSTLTLSKADYEKHKVYACEVTHQGLSSPVTKSFNRGEC
notes: copies: 2 + 2
**Q.** What does the source list for B1?
**A.** inhibition of NFkB signal, IC50 [1]: 59 pM; maximal inhibition of NFkB signal [1]: 42%; Kd [2]: 0.00073 µM; Kd (human FcγR1A): 0.465 µM; avidity (FcRn pH6) (human FcRn): 1.43 nM; Kd [3]: 0.147 µM; koff [3]: 0.025 s⁻¹; kon [3]: 170000 M⁻¹ s⁻¹; Kd [4]: 0.00233 µM; koff [4]: 0.00157 s⁻¹; kon [4]: 673000 M⁻¹ s⁻¹; EC50 [5]: 0.000854 µM; EC50 [6]: 66 pM; Kd (human FcγR2B): 4.78 µM; Kd (human FcγR3B): 1580 µM; Kd (human FcγR2A 131H): 76.5 µM; Kd (human FcγR2A 131R): 28.9 µM; Kd (human FcγR3A 158V): 7010 µM; Kd (human FcγR3A 158F): 2480 µM

B2: humanised 2.8.6 hIgG1 delta ac (antibody)
chain 1: QVTLKESGPALVKPTQTLTLTCTVSGFSLTTYGVHWIRQPPGKALEWLGVMWPGGRTSYNPSLKSRLTITKDNSKSQVVLTMTNMDPVDTATYYCVRGDYEYDYYAMDYWGQGTLVTVSSASTKGPSVFPLAPSSKSTSGGTAALGCLVKDYFPEPVTVSWNSGALTSGVHTFPAVLQSSGLYSLSSVVTVPSSSLGTQTYICNVNHKPSNTKVDKKVEPKSCDKTHTCPPCPAPPVAGGPSVFLFPPKPKDTLMISRTPEVTCVVVDVSHEDPEVKFNWYVDGVEVHNAKTKPREEQYNSTYRVVSVLTVLHQDWLNGKEYKCKVSNKGLPSSIEKTISKAKGQPREPQVYTLPPSRDELTKNQVSLTCLVKGFYPSDIAVEWESNGQPENNYKTTPPVLDSDGSFFLYSKLTVDKSRWQQGNVFSCSVMHEALHNHYTQKSLSLSP
chain 2: B1 light
**Q.** Which Kd (human FcγR1A) does the source give for B2 here?
**A.** 2.85 µM

**Q.** And the “avidity (FcRn pH6)” value (human FcRn)?
**A.** 11.9 nM

**Q.** And the Kd (human FcγR2B)?
**A.** 131 µM

**Q.** And the Kd (human FcγR2A 131H)?
**A.** 82.2 µM

**Q.** What about the Kd (human FcγR2A 131R) of the same binder?
**A.** 79.3 µM

**Q.** What about the Kd (human FcγR3A 158V) of the same binder?
**A.** 96.4 µM

**Q.** What about the Kd (human FcγR3A 158F) of the same binder?
**A.** 344 µM

B3: humanised 2.8.6 hIgG1 delta ab (antibody)
chain 1: QVTLKESGPALVKPTQTLTLTCTVSGFSLTTYGVHWIRQPPGKALEWLGVMWPGGRTSYNPSLKSRLTITKDNSKSQVVLTMTNMDPVDTATYYCVRGDYEYDYYAMDYWGQGTLVTVSSASTKGPSVFPLAPSSKSTSGGTAALGCLVKDYFPEPVTVSWNSGALTSGVHTFPAVLQSSGLYSLSSVVTVPSSSLGTQTYICNVNHKPSNTKVDKKVEPKSCDKTHTCPPCPAPPVAGPSVFLFPPKPKDTLMISRTPEVTCVVVDVSHEDPEVKFNWYVDGVEVHNAKTKPREEQYNSTYRVVSVLTVLHQDWLNGKEYKCKVSNKGLPSSIEKTISKAKGQPREPQVYTLPPSRDELTKNQVSLTCLVKGFYPSDIAVEWESNGQPENNYKTTPPVLDSDGSFFLYSKLTVDKSRWQQGNVFSCSVMHEALHNHYTQKSLSLSP
chain 2: B1 light
**Q.** Which “avidity (FcRn pH6)” value (human FcRn) does the source give for B3 here?
**A.** 14.8 nM

**Q.** And the Kd (human FcγR2B)?
**A.** 82.5 µM

**Q.** And the Kd (human FcγR3B)?
**A.** 2820 µM

**Q.** What about the Kd (human FcγR2A 131H) of the same binder?
**A.** 4.86 µM

**Q.** And the Kd (human FcγR2A 131R)?
**A.** 9.56 µM

**Q.** And the Kd (human FcγR3A 158V)?
**A.** 494 µM

**Q.** And the Kd (human FcγR3A 158F)?
**A.** 722 µM

B4: humanised 2.8.6 hIgG1 D265A G236D S267E A330R (antibody)
heavy: QVTLKESGPALVKPTQTLTLTCTVSGFSLTTYGVHWIRQPPGKALEWLGVMWPGGRTSYNPSLKSRLTITKDNSKSQVVLTMTNMDPVDTATYYCVRGDYEYDYYAMDYWGQGTLVTVSSASTKGPSVFPLAPSSKSTSGGTAALGCLVKDYFPEPVTVSWNSGALTSGVHTFPAVLQSSGLYSLSSVVTVPSSSLGTQTYICNVNHKPSNTKVDKKVEPKSCDKTHTCPPCPAPELLDGPSVFLFPPKPKDTLMISRTPEVTCVVVAVEHEDPEVKFNWYVDGVEVHNAKTKPREEQYNSTYRVVSVLTVLHQDWLNGKEYKCKVSNKALPRPIEKTISKAKGQPREPQVYTLPPSREEMTKNQVSLTCLVKGFYPSDIAVEWESNGQPENNYKTTPPVLDSDGSFFLYSKLTVDKSRWQQGNVFSCSVMHEALHNHYTQKSLSLSPGK
light: B1 light
notes: Fc variant with the variable domains of humanised 2.8.6; copies: 2 + 2
**Q.** What does the source list for B4?
**A.** binding result (human FcγR1A): no binding; Kd (human FcγR2B): 104 µM; binding result (human FcγR3B): no binding; binding result (human FcγR2A 131H): no binding; Kd (human FcγR2A 131R): 54.4 µM; binding result (human FcγR3A 158V): no binding; binding result (human FcγR3A 158F): no binding

B5: Engineered humanised 6.2 (Variant C) (antibody, V domains shown)
VH: EVQLVESGGGLVKPGGSLRLSCAASGFTLSSYGMSWVRQAPGKGLEWVASIRSDGQTYYPDSVKGRFTISRDNAKNTLYLQMSSLRAEDTAVYYCTRGGYYGSSPYYWGQGTTVTVSS
VL: DIVMTQSPLSLPVTPGEPASISCKSSQSLLYSSNQKNYLAWYQQKPGQSPKLLIYWASTRESGVPDRFSGSGSGTDFTLKISRVEAEDVGVYYCQQYYNYLTFGGGTKVEIKR
**Q.** B5 was tested. Which “inhibition of NFkB signal, IC50” value [1] did it give?
**A.** 28 pM

**Q.** And the “maximal inhibition of NFkB signal” value [1]?
**A.** 47%

**Q.** What about the Kd [3] of the same binder?
**A.** 0.0154 µM

**Q.** And the koff [3]?
**A.** 0.00352 s⁻¹

**Q.** What about the kon [3] of the same binder?
**A.** 229000 M⁻¹ s⁻¹

**Q.** What about the Kd [4] of the same binder?
**A.** 0.00125 µM

**Q.** And the koff [4]?
**A.** 0.00133 s⁻¹

**Q.** What about the kon [4] of the same binder?
**A.** 1.06e+06 M⁻¹ s⁻¹

**Q.** What about the EC50 [5] of the same binder?
**A.** 0.000148 µM

**Q.** What about the EC50 [6] of the same binder?
**A.** 62 pM

B6: Engineered humanised 3E8 (Variant B) (antibody, V domains shown)
VH: QVQLVQSGAELKKPGASVKVSCKASGYTFTSYAIRWVRQATGQGLEWMGEIYPRSGNTYYAQKFQGRATLTADKSISTAYMELSSLRSEDTAVYFCARSGGASYTMDYWGQGTTVTVSS
VL: ENVLTQSPATLSLSLGERATLSCSASSSVSSSYLHWYQQKPDQSPRPLIHRTSNLASGIPSRFSGSGSGTDYTLTISSLEAEDFAVYYCQQWSGYPFTFGSGTKLEIKR
**Q.** For B6, which “inhibition of NFkB signal, IC50” value [1] is on record?
**A.** 65 pM

**Q.** And the “maximal inhibition of NFkB signal” value [1]?
**A.** 54%

**Q.** And the Kd [3]?
**A.** 1.52 µM

**Q.** And the koff [3]?
**A.** 0.431 s⁻¹

**Q.** And the kon [3]?
**A.** 287000 M⁻¹ s⁻¹

**Q.** And the Kd [4]?
**A.** 0.141 µM

**Q.** And the koff [4]?
**A.** 0.122 s⁻¹

**Q.** And the kon [4]?
**A.** 865000 M⁻¹ s⁻¹

**Q.** What about the EC50 [5] of the same binder?
**A.** 0.0156 µM

**Q.** What about the EC50 [6] of the same binder?
**A.** 177 pM

B7: hHVEM-mFc fusion protein (human HVEM extracellular domain fused to mouse IgG1 Fc) (Fc fusion)
chain: LPSCKEDEYPVGSECCPKCSPGYRVKEACGELTGTVCEPCPPGTYIAHLNGLSKCLQCQMCDPAMGLRASRNCSRTENAVCGCSPGHFCIVQDGDHCAACRAYATSSPGQRVQKGGTESQDTLCQNCPPGTFSPNGTLEECQHQTKCSWLVTKAGAGTSSSHLVPRGSGSKPSISTVPEVSSVFIFPPKPKDVLTITLTPKVTCVVVDISKDDPEVQFSWFVDDVEVHTAQTQPREEQFNSTFRSVSELPIMHQDWLNGKEFKCRVNSAAFPAPIEKTISKTKGRPKAPQVYTIPPPKEQMAKDKVSLTCMITDFFPEDITVEWQWNGQPAENYKNTQPIMDTDGSYFVYSKLNVQKSNWEAGNTFTCSVLHEGLHNHHTEKSLSHSPGKHHHHHH
**Q.** For B7, which “inhibition of NFkB signal, IC50” value [1] is on record?
**A.** 9600 pM

**Q.** What about the “maximal inhibition of NFkB signal” value [1] of the same binder?
**A.** 27%
